Patent US8859223

Key:
EVNL-SSHD = target: T1, EVNL-SSHD
T1 chain: EVNLSSHD

APSL-DAHF = target: T2, APSL-DAHF
T2 chain: APSLDAHF

ASNL-DAHF = target: T3, ASNL-DAHF
T3 chain: ASNLDAHF

EI(Thi)(Thi)-(Nva)AHF = target: T4, EI(Thi)(Thi)-(Nva)AHF
T4 chain: EIXXXAHF

DETL-DAHF = target: T5, DETL-DAHF
T5 chain: DETLDAHF

EVNL-DAEF = target: T6, EVNL-DAEF
T6 chain: EVNLDAEF

EVNF-EVEF = target: T7, EVNF-EVEF
T7 chain: EVNFEVEF

EIDL-MVLD = target: T8, EIDL-MVLD
T8 chain: EIDLMVLD

EVNL-DAHF = target: T9, EVNL-DAHF
T9 chain: EVNLDAHF

EIDL-SSHD = target: T10, EIDL-SSHD
T10 chain: EIDLSSHD

B1: BACE enzyme (beta-secretase) (protein)
chain: ETDEEPEEPGRRGSFVEMVDNLRGKSGQGYYVEMTVGSPPQTLNILVDTGSSNFAVGAAPHPFLHRYYQRQLSSTYRDLRKGVYVPYTQGKWEGELGTDLVSIPHGPNVTVRANIAAITESDKFFINGSNWEGILGLAYAEIARPDDSLEPFFDSLVKQTHVPNLFSLQLCGAGFPLNQSEVLASVGGSMIIGGIDHSLYTGSLWYTPIRREWYYEVIIVRVEINGQDLKMDCKEYNYDKSIVDSGTTNLRLPKKVFEAAVKSIKAASSTEKFPDGFWLGEQLVCWQAGTTPWNIFPVISLYLMGEVTNQSFRITILPQQYLRPVEDVATSQDDCYKFAISQSSTGTVMGAVIMEGFYVVFDRARKRIGFAVSACHVHDEFRTAAVEGPFVTLDMEDCGYNIPQTDESTLMTIAY
EVNL-SSHD
  Percent Cleavage after 10 hr Incubation with BACE: 3.5%
APSL-DAHF
  Percent Cleavage after 10 hr Incubation with BACE: 0.5%
ASNL-DAHF
  Percent Cleavage after 10 hr Incubation with BACE: Not Detected
EI(Thi)(Thi)-(Nva)AHF
  Percent Cleavage after 10 hr Incubation with BACE: 25%
DETL-DAHF
  Percent Cleavage after 10 hr Incubation with BACE: 1%
EVNL-DAEF
  Percent Cleavage after 10 hr Incubation with BACE: 50%
EVNF-EVEF
  Percent Cleavage after 10 hr Incubation with BACE: 85%
EIDL-MVLD
  Percent Cleavage after 10 hr Incubation with BACE: 20%
EVNL-DAHF
  Percent Cleavage after 10 hr Incubation with BACE: 50%
EIDL-SSHD
  Percent Cleavage after 10 hr Incubation with BACE: 5%
